Primed or numbered codes have the meaning given here. Where no end group is shown, it is not given here. [ ]: non-standard residue; d: D form. Me3″ = trimethylation (trimethyl-lysine); Me2 = dimethylation (dimethyl-lysine); Lys(Me2) = CN(C)CCCC[C@H](N)C(=O)O A value given as a limit tells only on which side of the number the result lay.

In assay [1] the target is T1, ASH1L PHD finger (Mus musculus, UniProt Q99MY8).
T1 construct: The mASH1L PHD domain (residue 2573–2624); MBP (cleaved yes); made in house; host or cells: Escherichia coli BL21 (DE3)
Nature of the assay: 1H,15N HSQC chemical shift perturbation. In kind it is binding, mASH1L. The following applies: protein-to-peptide molar ratio 1:5; 298 K, 800 MHz, 1×PBS, pH 7.2, 100-μM ZnCl2. The text has this:
The mASH1L PHD domain (residue 2573–2624) was subcloned into a modified pMAL-c5X expression vector (New England Biolabs, Ipswich, MA, US), which contains an MBP tag and a TEV cleavage site. The site-directed mutagenesis of D2573A, I2575A, D2584E, E2585A, M2588A, Q2590E, and W2597A in the PHD domain was generated using the PfuTurbo DNA polymerase (Agilent Technologies) and Dpn I restriction enzyme (New England Biolabs). After the MBP tag was cut by TEV, these proteins were used in ITC and NMR experiments. The His-tagged PHD domain was subcloned into a pGEX-4T1 expression vector. The base vector has a GST tag and was engineered to include a TEV cleavage site before a 5′ 6×His sequence. […]
The bacteria were grown in Luria Broth (LB) media, supplemented with 100-μM ZnCl2 (all PHD constructs). […] The size and purity of the purified protein were monitored by SDS-PAGE. The PHD protein was concentrated with a filter tube (Millipore, Co. Cork, Ireland) and measured by UV absorbance at 280 nm.
The ^1H,^15N HSQC spectra of the ^15N-labeled PHD finger were collected at 298 K on a Bruker 800-MHz NMR spectrometer equipped with the z-gradient triple-resonance cryoprobe. The binding was analyzed through monitoring chemical shift perturbations observed in the two-dimensional ^1H,^15N HSQC spectra of PHD finger upon the addition of H3 (aa 1-15) peptides (H3K4me, H3K4me2, H3K4me3). […]

Assay [2] concerns the target T1, ASH1L PHD finger. Nature of the assay: ITC, ASH1L PHD finger with H3 peptides. The following applies: 1×PBS, 100-μM ZnCl2, pH 7.2. The assay is classed as binding, mASH1L. In general terms: In ITC the heat of successive injections is recorded.
Experimental: The bacteria were grown in Luria Broth (LB) media, supplemented with 100-μM ZnCl2 (all PHD constructs). All PHD domains were expressed in Escherichia coli BL21 (DE3) cells and induced overnight with 0.5-mM isopropyl-β-D-1-thiogalactopyranoside (IPTG) at 22°C. In addition, the cells were harvested by centrifugation at 4,000 g. The harvested cells with MBP-tagged PHD were resuspended in buffer containing 25-mM Tris, pH 7.2, 1-M NaCl, 20-mM β-mercaptoethanol, 100-μM ZnCl2, and the Complete EDTA-free Protease Inhibitor (Roche, Mannheim, Germany). Following lysis in a microfluidizer (MFIC), cell debris was removed by centrifugation at 12,000 g for 1 h and the supernatant was loaded on a 5-ml MBPTrap HP column (GE Healthcare). The binding protein was eluted with buffer containing 25-mM Tris, pH 7.2, 500-mM NaCl, 20-mM β-mercaptoethanol, 20-mM maltose, and 100-μM ZnCl2. After TEV cleavage, the PHD domain was supplemented with 20-mM DTT and further purified using a Superdex 75 column (GE Healthcare, Uppsala, Sweden) in a final buffer containing 1×PBS, pH 7.2, 100- μM ZnCl2. […] The PHD protein was concentrated with a filter tube (Millipore, Co. Cork, Ireland) and measured by UV absorbance at 280 nm.
ITC assays were carried out on the MicroCal iTC200 System (Malvern) at 25°C while stirring at 750 rpm in the ITC buffer of pH 7.2, consisting of 1×PBS, 100-μM ZnCl2. […] The PHD or tandem Bromo-PHD protein sample of 100 µM was placed in the cell and titrated with 3 mM of a different peptide solution in the ITC buffer using a set of 31 injections of 1.2 μl, following a single initial injection of 0.2 μl. In the ITC measurements of PHD mutant samples, the H3 (1–15) peptides were diluted to the final concentrations of 1.5 mM, titrated with a single initial injection of 0.4 μl and followed with a set of 19 injections of 2 μl. Cumulative enthalpy exchange plots were derived from the raw thermal changes, using one set of a site-fitting model.
For assay [3], the target named is mASH1L PHD domain (residue 2573–2624) (mouse) (UniProt Q99MY8). Briefly: NMR titration; 1H,15N HSQC; 100 μM PHD domain titrated with 25 to 2,000 μM peptide; 1×PBS pH 7.2, 100 μM ZnCl2, 298 K; single-site binding model.
Assay [4] has as its target T2, mASH1L PHD domain (residue 2573–2624) D2584E (mouse, UniProt Q99MY8 2573-2624, D2584E).
T2 construct: also called Asp2584 to Glu; source: E. coli BL21 (DE3), purified (MBPTrap, TEV cleavage, Superdex 75)
T2 sequence (looked up): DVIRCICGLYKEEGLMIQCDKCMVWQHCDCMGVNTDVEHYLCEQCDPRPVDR
Briefly: ITC; PHD mutants in the cell; H3 (1–15) peptides at 1.5 mM, 19 injections of 2 μl; 25°C, 1×PBS pH 7.2, 100 μM ZnCl2; one set of sites model. The following applies: both partners purified.

Assay [5] concerns the target T3, mASH1L PHD domain (residue 2573–2624) Q2590E (mouse, UniProt Q99MY8 2573-2624, Q2590E).
T3 construct: also called Gln2590 to glutamate; source: E. coli BL21 (DE3), purified (MBPTrap, TEV cleavage, Superdex 75)
T3 sequence (looked up): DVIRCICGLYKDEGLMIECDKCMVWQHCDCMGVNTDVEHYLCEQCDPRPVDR
The assay is described as above. The following applies: both partners purified.

Assay [6] has as its target mASH1L PHD domain (residue 2573–2624) (mouse) (UniProt Q99MY8). Nature of the assay: ITC; MicroCal iTC200, 25°C, 1×PBS pH 7.2, 100 μM ZnCl2; 100 µM PHD or tandem Bromo-PHD in the cell, titrated with 3 mM peptide (31 injections of 1.2 μl); one set of sites model.
For assay [7], the target named is mASH1L PHD domain (residue 2573–2624) E2585A (mouse, UniProt Q99MY8 2573-2624, E2585A). Nature of the assay: ITC.
The target in assay [8] is mASH1L PHD domain (residue 2573–2624) Q2590E (mouse, UniProt Q99MY8 2573-2624, Q2590E). Briefly: ITC.
The target in assay [9] is mASH1L PHD domain (residue 2573–2624) W2597A (mouse, UniProt Q99MY8 2573-2624, W2597A). Briefly: ITC.
In assay [10] the target is mASH1L PHD domain (residue 2573–2624) D2573A (mouse, UniProt Q99MY8 2573-2624, D2573A). Nature of the assay: ITC.
In assay [11] the target is T4, mASH1L PHD domain (residue 2573–2624) (mouse, UniProt Q99MY8 2573-2624).
T4 chain: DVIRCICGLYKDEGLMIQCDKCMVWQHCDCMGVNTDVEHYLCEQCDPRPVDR
Nature of the assay: ITC.

Assay [12] addresses mASH1L PHD domain (residue 2573–2624) M2588A (mouse, UniProt Q99MY8 2573-2624, M2588A). Nature of the assay: ITC.
The target in assay [13] is T5, His-tagged Bromo-PHD tandem domain (residue 2425–2627) of mASH1L (mouse, UniProt Q99MY8 2425-2627).
T5 construct: ASH1L (mASH1L), bromodomain and PHD finger in tandem, residues 2425-2627; pNIC-Bsa4 vector; no cleavage of the His tag is described; also called tandem Bromo-PHD protein; source: E. coli BL21 (DE3), purified (HiTrap IMAC FF, Superdex 75)
Nature of the assay: ITC; MicroCal iTC200, 25°C, 1×PBS pH 7.2, 100 μM ZnCl2; 100 µM PHD or tandem Bromo-PHD in the cell, titrated with 3 mM peptide (31 injections of 1.2 μl); one set of sites model. The following applies: both partners purified.

The target in assay [14] is T6, mASH1L PHD domain (residue 2573–2624) (mouse, UniProt Q99MY8 2573-2624).
T6 construct: 15N- or 13C-labelled for the NMR experiments; also called ASH1L PHD finger; source: E. coli BL21 (DE3), purified (MBPTrap, TEV cleavage, Superdex 75)
The assay is described as above. The settings on record: both partners purified.

Assay [15] concerns the target mASH1L PHD domain (residue 2573–2624) I2575A (mouse, UniProt Q99MY8 2573-2624, I2575A). Briefly: ITC.

Usually Kd stands for the free concentration of one partner at which half of the binding sites on the other are occupied at equilibrium, for simple one-to-one binding. On to `C[C@H](NC(=O)[C@@H](NC(=O)[C@H](CCC(N)=O)NC(=O)[C@H](CCCCN)NC(=O)[C@@H](NC(=O)[C@@H](N)CCCNC(=N)N)[C@@H](C)O)[C@@H](C)O)C(=O)N[C@@H](CCCNC(=N)N)C(=O)N[C@@H](CCCCN(C)C)C(=O)N[C@@H](CO)C(=O)N[C@H](C(=O)NCC(=O)NCC(=O)N[C@@H](CCCCN)C(=O)N[C@@H](C)C(=O)N1CCC[C@H]1C(=O)O)[C@@H](C)O` [H3K9me2], for which the “HSQC chemical shift perturbation” value on ASH1L PHD finger [1] is on record as “binds with methylated H3K4 peptides but not H3K4me0, H3K9me2, or H3K36me2 peptides”. In addition, the “binding by ITC, in words” value at ASH1L PHD finger [2] (25°C) is given as “weak binding affinity”. This molecule had a dissociation constant Kd at ASH1L PHD finger [2] (MicroCal iTC200, 25°C, 100 µM protein titrated with 3 mM peptide, H3 (1–15) peptides, H3 (2–16) K9me2, H3 (29–43) K36me2) above 500 µM.

B1: histone H3 (1–15) peptide, monomethylated on lysine 4 (peptide, UniProt P68431 2-16, looked up)
peptide: ARTK(Me)QTARKSTGGKA
notes: histone H3, residues 1-15; also called H3K4me1; H3K4me; source: synthetic peptide (MIMOYOPES, Wuxi, China)
On to B1, for which the Kd in [3] was 181 µM; in [4] it was around 54 µM; in [6], 75 µM; in [7], 140 µM; in assay [8], 31 µM; in assay [9], above 200 µM. The Kd in [10] was 188 µM; in [11], 41 µM; in assay [12], above 200 µM; in assay [13], around 64 µM. In addition, the binding result in [5] is “binds”.

B2: histone H3 (1–15) peptide, unmethylated on lysine 4 (peptide, UniProt P68431 2-16, looked up)
peptide: ARTKQTARKSTGGKA
notes: histone H3, residues 1-15; also called H3K4; H3K4me0; source: synthetic peptide (MIMOYOPES, Wuxi, China)
With B2, the figures for the dissociation constant (Kd) in assay [6] and in assay [13] were above 300 µM and above 500 µM, respectively.
APATGGVK(Me2)KPHRYRP [histone H3 (29–43) peptide with dimethylation on lysine 36] had a Kd in [14] above 500 µM.

B3: histone H3 (1–15) peptide, trimethylated on lysine 4 (peptide, UniProt P68431 2-16, looked up)
peptide: ARTK(Me3″)QTARKSTGGKA
notes: histone H3, residues 1-15; also called H3K4me3; source: synthetic peptide (MIMOYOPES, Wuxi, China)
For B3, the Kd was 106 µM in assay [3]; around 38 µM in [4]; 64 µM in assay [6]; 49 µM in assay [7]; 33 µM in assay [8]; above 200 µM in assay [9]. The Kd in assay [10] was 86 µM; in assay [15], 103 µM; in assay [11] it was 33 µM; in [12], above 200 µM; in assay [13], around 48 µM. In [5], the binding result is on record as “binds”.

B4: histone H3 (1–15) peptide, dimethylated on lysine 4 (peptide)
peptide: ART[Lys(Me2)]QTARKSTGGKA
notes: also called H3K4me2; H3K4me2 peptide (1–15); source: synthetic peptide (MIMOYOPES, Wuxi, China)
Take B4: the Kd in assay [3] was 238 µM; in assay [4], around 26 µM; in assay [6] it was 39 µM; in assay [7], 174 µM; in assay [8], 35 µM; in [9], above 200 µM. Besides, the Kd in assay [10] is 71 µM; in [15] it was above 200 µM; in assay [12], above 200 µM; in [13], around 29 µM. Further, the binding result in assay [5] is recorded as “binds”.

B5: histone H3 (2–16) peptide with dimethylation on lysine 9 (peptide, UniProt P68431 3-17, looked up)
peptide: RTKQTARK(Me2)STGGKAP
notes: histone H3, residues 2-16; also called H3K9me2; source: synthetic peptide (MIMOYOPES, Wuxi, China)
Regarding B5, the Kd in assay [14] is above 500 µM.

For the origin of these results see article PMC9399681, “Structural insight into ASH1L PHD finger recognizing methylated histone H3K4 and promoting cell growth in prostate cancer” (Frontiers in Oncology, 2022).
